Results published in PMC6885551.

Target: Salmonella FraB deglycase, wild type (Salmonella enterica)
Assay: native MS

Salmonella FraB deglycase, wild type (enzyme)
Kd: 31 to 63 nM
